Literature values, collected in patent US20110294730A1, “METHOD OF TREATING GLAUCOMA AND INTRAOCULAR HYPERTENSION” (priority 2010, published 2011).

Tested on: trabecular meshwork

B1: IL-Ia: exogenous growth factor (protein, UniProt P01583 113-271, looked up)
Interleukin-1 alpha: SAPFSFLSNVKYNFMRIIKYEFILNDALNQSIIRANDQYLTAAALHNLDEAVKFDMGAYKSSKDDAKITVILRISKTQLYVTAQDEDQPVLLKEMPEIPKTITGSETNLLFFWETHGTKNYFTSVAHPNLFIATKQDYWVCLAGGPPSITDFQILENQA
  extracellular acidification: significantly stimulated
